Laboratory results: patent publication US20250034212A1, “PEPTIDE” (PEPTIDREAM INC., priority 2021, published 2025)
Starred links: 1 amine or outer side, 2 acyl side, 3 side chain; linkers in the order of their positions; H or OH if unused. Positions of bridges follow the written chain, without caps; N, C: chain ends. Non-standard residues stand in square brackets, D forms with d. Residues, ends and D or L forms follow the SMILES beside them. Groups on a side chain read outwards from the residue. *: point of attachment. KCOmeglumine = N6-(methyl-((2S,3R,4R,5R)-2,3,4,5,6-pentahydroxyhexyl)carbamoyl)-L-lysine, CN(C[C@H](O)[C@@H](O)[C@H](O)[C@H](O)CO)C(=O)NCCCC[C@H](N[*:1])C(=O)[*:2]; KCOpipzaa = N6-(4-(carboxymethyl)piperazine-1-carbonyl)-L-lysine, O=C(NCCCC[C@H](N[*:1])C(=O)[*:2])N1CCN(CC(=O)[*:3])CC1; OCOmPEG10000 = methoxypolyethyleneglycol (10000) carbonate on Lys NZ; Piperazinyl(4-CH2COOH) = O=C(O)CN1CCN(*)CC1; 1Nal = N[C@@H](Cc1cccc2ccccc12)C(=O)O; Gly(NCH2CH2Ph) = O=C(O)CNCCc1ccccc1; 4Pal = N[C@@H](Cc1ccncc1)C(=O)O; CO = O=C([*:1])[*:2]

Legend:
recombinant human TGF-β1 [1] = target: T1, recombinant human TGF-β1 (Homo sapiens, UniProt P01137); experiment: SPR intermolecular interaction test, TGF-β1 immobilized on CM3 sensor chip (Biacore T200); assay type: binding; conditions: for Kd: Single Cycle Kinetics, human TGF-β1
T1 construct: purchased R&D systems
T1 sequence (P01137 279-390 limits assumed): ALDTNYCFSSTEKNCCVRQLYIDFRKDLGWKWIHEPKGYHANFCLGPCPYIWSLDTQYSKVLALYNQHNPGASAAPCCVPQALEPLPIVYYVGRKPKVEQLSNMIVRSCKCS
Description: In this Example, (1) the activity of binding to TGF-β for various peptides consisting of the amino acid sequences set forth in SEQ ID NOs: 2-33 synthesized in Examples 1 to 5 and 7 was evaluated. (2) The activity and selectivity of binding of the peptide consisting of the amino acid sequence set forth in SEQ ID NO: 13 synthesized in Example 2 against two isoforms of TGF-β (TGF-β1 and β2) were checked. For this purpose, the intermolecular interaction of each peptide against TGF-β was tested by surface plasmon resonance (SPR) in the method described below. Specific test methods are described below.
A CM3 sensor chip (Global Life Science Technologies Japan Co., Ltd.) was inserted into a BiacoreT200 (Global Life Science Technologies Japan Co., Ltd.). Three priming runs were performed using running buffer: HBS-EP+ (Global Life Science Technologies Japan Co., Ltd.). The system was then equilibrated at a flow rate of 30 μL/min.
(§1) Subsequently, 50 μL of 60 mM EDC solution (Global Life Science Technologies Japan Co., Ltd.) and 50 μL of 650 mM NHS solution (Global Life Science Technologies Japan Co., Ltd.) were mixed. Next, the reaction was carried out at a flow rate of 10 μL/min for 420 seconds. Then, 150 μL of 0.2 μM TGF-β solution diluted in 10 mM acetic acid solution (pH 5.0) was prepared and reacted at a flow rate of 10 μL/min for 420 seconds to immobilize TGF-β on the CM3 sensor chip. TGF-β was human-derived TGF-β1 or β2 (recombinant human TGF-β1, 2) and was obtained from R&D systems. After immobilization, capping was performed by reacting with 1.0 M ethanolamine aqueous solution (Global Life Science Technologies Japan Co., Ltd.) at a flow rate of […] for 420 seconds.
(§2) A liquid prepared by dissolving each peptide at 10 mM in DMSO solution was diluted with running buffer to prepare a peptide-dissolved solution at a final concentration of 10 μM. Subsequently, 50 nM, 25 nM, 12.5 nM, 5 nM, and 2.5 nM peptide solutions were prepared. Using the above samples, the kinetics of each peptide against TGF-β was obtained by SPR measurement.
(§3) The kinetics evaluation model was Single Cycle Kinetics, and curve fitting was performed using Biacore T200 Evaluation Software Version 3.0 (Global Life Science Technologies Japan Co., Ltd.). The binding of various peptides to TGF-β was evaluated by performing least-squares curve fitting on the obtained sensorgram to calculate the KD value.

recombinant human TGF-β1 [2] = target: T1, recombinant human TGF-β1; experiment: SBE reporter assay in SBE reporter-HEK293 cells, TGF-β1 stimulation; assay type: cell-based; conditions: for inhibition at 75 pM: peptide 0.075 nM; for inhibition at 0.00075 µM: peptide 0.75 nM; for inhibition at 0.0075 µM: peptide 7.5 nM; for inhibition at 0.075 µM: peptide 75.0 nM
Source text: The inhibitory activity of the peptide can be calculated without limitation while the maximum signal induced by TGF-β is set to 0% inhibition and no stimulation is set to 100% inhibition. When the peptide is used at an appropriate concentration, for example, at the optimal concentration, the inhibitory activity is not limited but the inhibition is 5% or more, 10% or more, 20% or more, 30% or more, 40% or more, 50% or more, 60% or more, 70% or more, 80% or more, or 90% or more.
In this Example, the TGF-β1 inhibitory activity of the peptide of the present invention consisting of the amino acid sequence set forth in SEQ ID NOs: 2-33 synthesized in Examples 1 to 5 and 7 was evaluated by an SBE reporter assay using the SBE reporter-HEK293 cell system (BP Bioscience) as follows.
SBE reporter-HEK293 cells were cultured in E-MEM (Wako) containing 10% FBS (Sigma). The cells were detached using Accutase (Innovative Cell Technologies), suspended in E-MEM containing 0.5% FBS, seeded onto a 96-well plate(s) at a concentration of 45,000 cells per well, and cultured overnight. The next day, the peptide was added and allowed to stand for 20 min, and recombinant human TGF-β1 (R&D systems) or recombinant human TGF-β2 (R&D systems) was then added at 0.13 nM and cultured for 18 hours.
Thereafter, luciferase assay ONE-Glo reagent was added to each well and the plate was shaken for 5 min. A SpectraMax Paradigm multimode microplate reader (Molecular Devices) was then used for signal detection. The obtained signals were analyzed by GraphPad Prism. The inhibitory activity of the peptide was calculated while the maximum signal induced by TGF-β was set to 0% inhibition and no stimulation was set to 100% inhibition.

[3] = target: T2, recombinant human TGF-β1 (R&D systems) (human, UniProt P01137 279-390); experiment: cell-based or functional assay
T2 sequence (P01137 279-390 limits assumed): as above

[4] = target: T2, recombinant human TGF-β1 (R&D systems); experiment: SPR, TGF-β1 immobilised, single cycle kinetics
Description: as §1, §2, §3

Molecule	Kd (recombinant human TGF-β1 [1])	SBE reporter % inhibition, peptide 0.062 nM [3]	SBE reporter % inhibition, peptide 0.185 nM [3]	SBE reporter % inhibition, peptide 0.56 nM [3]	SBE reporter % inhibition, peptide 1.7 nM [3]	SBE reporter % inhibition, peptide 5.0 nM [3]	SBE reporter % inhibition, peptide 15.0 nM [3]	Kd [4]	further results
CC(C)[C@@H]1NC(=O)CN(CCc2ccccc2)C(=O)[C@H](CC(=O)O)NC(=O)[C@H](CC(=O)O)NC(=O)[C@H](Cc2ccc(O)cc2)NC(=O)[C@H](C(C)C)NC(=O)[C@H](CC(N)=O)NC(=O)[C@H](C(C)C)NC(=O)[C@H](C(C)C)NC(=O)[C@H](Cc2cccc3ccccc23)NC(=O)[C@H](Cc2ccccc2)NC(=O)CSC[C@@H](C(=O)NCC(N)=O)NC(=O)[C@H](C(C)C)NC(=O)[C@H](Cc2c[nH]cn2)NC(=O)[C@H](Cc2ccc(O)cc2)NC(=O)[C@H](Cc2cccc3ccccc23)NC1=O [TGFb1_001, F-Nal1-V-V-N-V-Y-D-D-PeG-V-Nal1-Y-H-V-C-G] ({CH2CO}-F[1Nal]VVNVYDD[Gly(NCH2CH2Ph)]V[1Nal]YHVCG-NH2; thioether N-16)									ability of binding to TGF-β1 (in words) (recombinant human TGF-β1 [1]): confirmed to have TGF-β binding activity; TGF-β1 antagonist / inhibitory activity (in words) (recombinant human TGF-β1 [2]; SBE reporter assay, FIG. 1 and Tables 2 and 3): TGF-β antagonist activity; inhibition at 75 pM (recombinant human TGF-β1 [2]; TGF-β1 0.13 nM, 18 hours): 19.7%; inhibition at 0.00075 µM (recombinant human TGF-β1 [2]; TGF-β1 0.13 nM, 18 hours): 69.7%; inhibition at 0.0075 µM (recombinant human TGF-β1 [2]; TGF-β1 0.13 nM, 18 hours): 98.1%; inhibition at 0.075 µM (recombinant human TGF-β1 [2]; TGF-β1 0.13 nM, 18 hours): 101%
CC(C)[C@@H]1NC(=O)CN(CCc2ccccc2)C(=O)[C@H](CC(=O)O)NC(=O)[C@H](CC(=O)O)NC(=O)[C@H](Cc2ccncc2)NC(=O)[C@H](C(C)C)NC(=O)[C@H](CC(N)=O)NC(=O)[C@H](C(C)C)NC(=O)[C@H](C(C)C)NC(=O)[C@H](Cc2cccc3ccccc23)NC(=O)[C@H](Cc2ccccc2)NC(=O)CSC[C@@H](C(=O)NCC(N)=O)NC(=O)[C@H](C(C)C)NC(=O)[C@H](Cc2c[nH]cn2)NC(=O)[C@H](Cc2ccc(O)cc2)NC(=O)[C@H](Cc2cccc3ccccc23)NC1=O [TGFb1_006] ({CH2CO}-F[1Nal]VVNV[4Pal]DD[Gly(NCH2CH2Ph)]V[1Nal]YHVCG-NH2; thioether N-16)	1.03 nM								inhibition at 75 pM (recombinant human TGF-β1 [2]; TGF-β1 0.13 nM, 18 hours): 2.8%; inhibition at 0.00075 µM (recombinant human TGF-β1 [2]; TGF-β1 0.13 nM, 18 hours): 69.3%; inhibition at 0.0075 µM (recombinant human TGF-β1 [2]; TGF-β1 0.13 nM, 18 hours): 97.1%; inhibition at 0.075 µM (recombinant human TGF-β1 [2]; TGF-β1 0.13 nM, 18 hours): 99.7%
CC(C)[C@@H]1NC(=O)CN(CCc2ccccc2)C(=O)[C@H](CC(=O)O)NC(=O)[C@H](CC(=O)O)NC(=O)[C@H](Cc2ccncc2)NC(=O)[C@H](C(C)C)NC(=O)[C@H](CC(N)=O)NC(=O)[C@H](C(C)C)NC(=O)[C@H](C(C)C)NC(=O)[C@H](Cc2cccc3ccccc23)NC(=O)[C@H](Cc2ccccc2)NC(=O)CSC[C@@H](C(N)=O)NC(=O)[C@H](CCCCNC(=O)N2CCN(CC(=O)O)CC2)NC(=O)[C@H](Cc2c[nH]cn2)NC(=O)[C@H](Cc2ccc(O)cc2)NC(=O)[C@H](Cc2cccc3ccccc23)NC1=O [TGFb1_013] ({CH2CO}-F[1Nal]VVNV[4Pal]DD[Gly(NCH2CH2Ph)]V[1Nal]YHK([CO-Piperazinyl(4-CH2COOH)])C-NH2; thioether N-16)	0.82 nM								
CC(C)[C@@H]1NC(=O)CN(CCc2ccccc2)C(=O)[C@H](CC(=O)O)NC(=O)[C@H](CC(=O)O)NC(=O)[C@H](Cc2ccncc2)NC(=O)[C@H](C(C)C)NC(=O)[C@H](CC(N)=O)NC(=O)[C@H](CCCCNC(=O)N2CCN(CC(=O)O)CC2)NC(=O)[C@H](C(C)C)NC(=O)[C@H](Cc2cccc3ccccc23)NC(=O)[C@H](Cc2ccccc2)NC(=O)CSC[C@@H](C(=O)NCC(N)=O)NC(=O)[C@H](CCCCNC(=O)N2CCN(CC(=O)O)CC2)NC(=O)[C@H](Cc2c[nH]cn2)NC(=O)[C@H](Cc2ccc(O)cc2)NC(=O)[C@H](Cc2cccc3ccccc23)NC1=O [TGFb1_019] ({CH2CO}-F[1Nal]VK([CO-Piperazinyl(4-CH2COOH)])NV[4Pal]DD[Gly(NCH2CH2Ph)]V[1Nal]YHK([CO-Piperazinyl(4-CH2COOH)])CG-NH2; thioether N-16)	1.41 nM								inhibition at 62 pM (recombinant human TGF-β1 [2]; peptide 0.062 nM, TGF-β1 0.13 nM, 18 hours): 5.21%; inhibition at 0.000185 µM (recombinant human TGF-β1 [2]; peptide 0.185 nM, TGF-β1 0.13 nM, 18 hours): 11.3%; inhibition at 0.00056 µM (recombinant human TGF-β1 [2]; peptide 0.56 nM, TGF-β1 0.13 nM, 18 hours): 30.2%; inhibition at 0.0017 µM (recombinant human TGF-β1 [2]; peptide 1.7 nM, TGF-β1 0.13 nM, 18 hours): 61.6%; inhibition at 0.005 µM (recombinant human TGF-β1 [2]; peptide 5.0 nM, TGF-β1 0.13 nM, 18 hours): 87.8%; inhibition at 0.015 µM (recombinant human TGF-β1 [2]; peptide 15.0 nM, TGF-β1 0.13 nM, 18 hours): 96.4%
{CH2CO}-F[1Nal]V[KCOmeglumine]NV[4Pal]DE[Gly(NCH2CH2Ph)]V[1Nal]YHECG-NH2 (thioether N-16; SMILES CC(C)[C@@H]1NC(=O)CN(CCc2ccccc2)C(=O)[C@H](CCC(=O)O)NC(=O)[C@H](CC(=O)O)NC(=O)[C@H](Cc2ccncc2)NC(=O)[C@H](C(C)C)NC(=O)[C@H](CC(N)=O)NC(=O)[C@H](CCCCNC(=O)N(C)C[C@H](O)[C@@H](O)[C@H](O)[C@H](O)CO)NC(=O)[C@H](C(C)C)NC(=O)[C@H](Cc2cccc3ccccc23)NC(=O)[C@H](Cc2ccccc2)NC(=O)CSC[C@@H](C(=O)NCC(N)=O)NC(=O)[C@H](CCC(=O)O)NC(=O)[C@H](Cc2c[nH]cn2)NC(=O)[C@H](Cc2ccc(O)cc2)NC(=O)[C@H](Cc2cccc3ccccc23)NC1=O, cyclic peptide; C-terminal G is a linker) [TGFb1_029]		12%	16.9%	32.4%	63.7%	85.8%	96.8%	0.94 nM	
{CH2CO}-F[1Nal]VVNV[4Pal]DD[Gly(NCH2CH2Ph)]V[1Nal]YH[KCOpipzaa]CGK(OCOmPEG10000)-NH2 (thioether N-16, cyclic peptide; linker G K(OCOmPEG10000) at the C-terminus) [TGFb1_032]		2.67%	7.18%	1.11%	4.77%	54%	91.3%	3.08 nM	
{CH2CO}-F[1Nal]VVNV[4Pal]DE[Gly(NCH2CH2Ph)]V[1Nal]YH[KCOpipzaa]CG-NH2 (thioether N-16; SMILES CC(C)[C@@H]1NC(=O)CN(CCc2ccccc2)C(=O)[C@H](CCC(=O)O)NC(=O)[C@H](CC(=O)O)NC(=O)[C@H](Cc2ccncc2)NC(=O)[C@H](C(C)C)NC(=O)[C@H](CC(N)=O)NC(=O)[C@H](C(C)C)NC(=O)[C@H](C(C)C)NC(=O)[C@H](Cc2cccc3ccccc23)NC(=O)[C@H](Cc2ccccc2)NC(=O)CSC[C@@H](C(=O)NCC(N)=O)NC(=O)[C@H](CCCCNC(=O)N2CCN(CC(=O)O)CC2)NC(=O)[C@H](Cc2c[nH]cn2)NC(=O)[C@H](Cc2ccc(O)cc2)NC(=O)[C@H](Cc2cccc3ccccc23)NC1=O, cyclic peptide; C-terminal G is a linker) [TGFb1_021]		10.2%	26.9%	58.9%	87.8%	97.1%	98.8%	1.37 nM	
